B1: X11 (antibody, human IgG4, V domains shown)
VH: QVQLVQSGAEVKKPGSSVKVSCKASGYNFLNYDVNWVRQAPGQGLEWMGGIIPIFGTANYAQKFQGRVTITADESTSTAYMELSSLRSEDTAVYYCATGVGAGWFDPWGQGTLVTVSS
VL: DIVMTQSPDSLAVSLGERATINCKSSQSVYFSENNKNYLAWYQQKPGQPPKLLIYWASTRESGVPDRFSGSGSGTDFTLTISSLQAEDVAVYYCQQYYEEPYTFGQGTRLEIK
B2: X20 (antibody, human IgG4, V domains shown)
VH: QVQLVQSGAEVKKPGSSVKVSCKASGYNFLHYDVNWVRQAPGQGLEWMGGIIPIFGTANYAQKFQGRVTITADESTSTAYMELSSLRSEDTAVYYCATAVGAGWFDPWGQGTLVTVSS
VL: DIVMTQSPDSLAVSLGERATINCKSSQSVYFSENNKNYLAWYQQKPGQPPKLLIYWASTRESGVPDRFSGSGSGTDFTLTISSLQAEDVAVYYCQQYYEEPYTFGQGTRLEIK
B3: X17 (antibody, human IgG4, V domains shown)
VH: QVQLVQSGAEVKKPGSSVKVSCKASGYNFLHYDVNWVRQAPGQGLEWMGGIIPIFGTANYAQKFQGRVTITADESTSTAYMELSSLRSEDTAVYYCATAVGAGWFDTWGQGTLVTVSS
VL: DIVMTQSPDSLAVSLGERATINCKSSQSVFFDENNKNYLAWYQQKPGQPPKLLIYWASTRESGVPDRFSGSGSGTDFTLTISSLQAEDVAVYYCQQYFEEPYTFGQGTRLEIK
B4: X7 (antibody, human IgG4, V domains shown)
VH: QVQLVQSGAEVKKPGSSVKVSCKASGYNFLNYDVNWVRQAPGQGLEWMGGIIPIFGTANYAQKFQGRVTITADESTSTAYMELSSLRSEDTAVYYCATGVGAGWFDPWGQGTLVTVSS
VL: DIVMTQSPDSLAVSLGERATINCKSSQSVFFDENNKNYLAWYQQKPGQPPKLLIYWASTRESGVPDRFSGSGSGTDFTLTISSLQAEDVAVYYCQQYFEEPYTFGQGTRLEIK
B5: X4 (antibody, human IgG4, V domains shown)
VH: QVQLVQSGAEVKKPGSSVKVSCKASGYNFLNYDVNWVRQAPGQGLEWMGGIIPIFGTANYAQKFQGRVTITADESTSTAYMELSSLRSEDTAVYYCATGVGAGWFDPWGQGTLVTVSS
VL: DIVMTQSPDSLAVSLGERATINCKSSQSVYFSPNNKNYLAWYQQKPGQPPKLLIYWASTRESGVPDRFSGSGSGTDFTLTISSLQAEDVAVYYCQQYFEEPYTFGQGTRLEIK
B6: X14 (antibody, human IgG4, V domains shown)
VH: QVQLVQSGAEVKKPGSSVKVSCKASGYNFLHYDVNWVRQAPGQGLEWMGGIIPIFGTANYAQKFQGRVTITADESTSTAYMELSSLRSEDTAVYYCATAVGAGWFDTWGQGTLVTVSS
VL: DIVMTQSPDSLAVSLGERATINCKSSQSVYFSPNNKNYLAWYQQKPGQPPKLLIYWASTRESGVPDRFSGSGSGTDFTLTISSLQAEDVAVYYCQQYFEEPYTFGQGTRLEIK
B7: X18 (antibody, human IgG4, V domains shown)
VH: QVQLVQSGAEVKKPGSSVKVSCKASGYNFLHYDVNWVRQAPGQGLEWMGGIIPIFGTANYAQKFQGRVTITADESTSTAYMELSSLRSEDTAVYYCATAVGAGWFDTWGQGTLVTVSS
VL: DIVMTQSPDSLAVSLGERATINCKSSQSVWFDPNNKNYLAWYQQKPGQPPKLLIYWASTRESGVPDRFSGSGSGTDFTLTISSLQAEDVAVYYCQQYFEEPYTFGQGTRLEIK

In the first assay the target is recombinant cynomolgus PILRB (cynomolgus monkey). Put plainly: SPR, Biacore T200, antibody captured by anti-Fab. (In general: SPR reads the build-up and loss of mass on a sensor chip optically.)
B1: the Kd (commonly the constant that tells how readily two partners part at equilibrium) was 0.4 nM.

A further assay has the same target. Put plainly: SPR, Carterra LSA, antibody amine-coupled, kinetic fit.
With B2, the Kd was found to be 0.1 nM.

For the molecule B3, the Kd was 0.3 nM.

On to B4, for which the Kd was found to be 0.5 nM. As to B1, the Kd came to 0.5 nM.

Regarding B5, the Kd was found to be 0.3 nM. For the molecule B6, the Kd is 0.2 nM. Take B7: the Kd stood at 0.3 nM.

The values above are taken from patent US20260070976A1.
